Measurements as given in patent US20060142193.

How the values were obtained:
TAT-SRF = TAT-SRF (UniProt P11831)
[1] = target: T1, serum response factor (SRF) (UniProt P11831)
T1 sequence: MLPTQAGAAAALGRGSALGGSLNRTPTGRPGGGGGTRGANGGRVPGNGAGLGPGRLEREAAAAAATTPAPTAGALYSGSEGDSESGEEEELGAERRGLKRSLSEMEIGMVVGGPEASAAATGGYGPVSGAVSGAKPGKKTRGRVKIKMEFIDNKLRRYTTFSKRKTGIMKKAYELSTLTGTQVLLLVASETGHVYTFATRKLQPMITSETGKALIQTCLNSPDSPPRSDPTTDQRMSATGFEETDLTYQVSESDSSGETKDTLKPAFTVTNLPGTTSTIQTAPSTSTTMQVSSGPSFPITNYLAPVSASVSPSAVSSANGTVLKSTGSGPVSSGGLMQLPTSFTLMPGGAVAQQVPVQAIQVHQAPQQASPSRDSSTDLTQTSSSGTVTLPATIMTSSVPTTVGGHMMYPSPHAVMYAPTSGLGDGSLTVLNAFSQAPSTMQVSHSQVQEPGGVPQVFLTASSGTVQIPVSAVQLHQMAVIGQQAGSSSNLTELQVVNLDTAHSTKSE

TAT-SRF245A/254A = TAT-SRF245A/254A (UniProt P11831)
[2] = target: endogenous ROCK1 of neonatal rat cardiomyocytes (UniProt Q63644)
Sequence of endogenous ROCK1 of neonatal rat cardiomyocytes (Q63644 2-1369): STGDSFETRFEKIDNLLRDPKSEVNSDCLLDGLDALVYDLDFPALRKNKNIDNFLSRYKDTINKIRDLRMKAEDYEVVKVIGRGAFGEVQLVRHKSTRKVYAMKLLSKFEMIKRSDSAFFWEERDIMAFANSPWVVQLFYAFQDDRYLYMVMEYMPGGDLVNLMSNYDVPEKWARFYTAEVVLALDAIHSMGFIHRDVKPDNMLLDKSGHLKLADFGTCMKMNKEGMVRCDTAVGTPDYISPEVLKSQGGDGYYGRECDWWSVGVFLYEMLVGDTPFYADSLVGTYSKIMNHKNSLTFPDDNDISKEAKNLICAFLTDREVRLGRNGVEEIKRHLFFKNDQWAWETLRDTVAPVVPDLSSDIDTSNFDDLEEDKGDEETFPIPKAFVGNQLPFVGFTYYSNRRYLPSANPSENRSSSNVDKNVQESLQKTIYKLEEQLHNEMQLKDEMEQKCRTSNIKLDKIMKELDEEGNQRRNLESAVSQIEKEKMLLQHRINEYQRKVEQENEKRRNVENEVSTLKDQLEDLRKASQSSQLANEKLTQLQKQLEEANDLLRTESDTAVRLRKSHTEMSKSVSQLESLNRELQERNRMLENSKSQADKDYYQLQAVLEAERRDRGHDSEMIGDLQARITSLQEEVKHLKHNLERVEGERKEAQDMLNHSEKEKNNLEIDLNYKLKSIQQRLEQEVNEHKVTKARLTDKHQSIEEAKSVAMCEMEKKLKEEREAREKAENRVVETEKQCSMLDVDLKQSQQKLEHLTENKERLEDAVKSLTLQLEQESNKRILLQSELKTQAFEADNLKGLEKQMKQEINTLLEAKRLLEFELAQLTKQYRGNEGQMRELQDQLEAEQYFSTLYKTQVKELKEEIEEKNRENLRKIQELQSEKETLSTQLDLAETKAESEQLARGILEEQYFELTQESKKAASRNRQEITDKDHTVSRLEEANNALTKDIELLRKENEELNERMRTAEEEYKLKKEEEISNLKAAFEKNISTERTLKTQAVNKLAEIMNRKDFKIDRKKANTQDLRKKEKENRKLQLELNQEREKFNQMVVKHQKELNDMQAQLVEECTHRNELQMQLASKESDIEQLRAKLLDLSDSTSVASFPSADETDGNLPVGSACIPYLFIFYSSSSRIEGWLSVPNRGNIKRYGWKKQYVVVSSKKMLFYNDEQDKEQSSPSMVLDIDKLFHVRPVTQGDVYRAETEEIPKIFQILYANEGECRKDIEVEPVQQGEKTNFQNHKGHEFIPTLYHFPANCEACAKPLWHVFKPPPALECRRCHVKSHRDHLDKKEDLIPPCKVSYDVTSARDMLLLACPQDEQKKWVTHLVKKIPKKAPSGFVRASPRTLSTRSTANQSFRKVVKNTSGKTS

Row | Substance | in vitro cleavage by recombinant caspase 3 (TAT-SRF) | in vitro cleavage of SRF [1] | in vitro cleavage by recombinant caspase 3 (TAT-SRF245A/254A) | 130 kDa ROCK1 cleavage fragment by Western blot of infected cardiomyocytes [2]
1 | active caspase 3 (recombinant caspase 3) | only TAT-SRF was cleaved by caspase 3 | Activated caspase 3 is able to cleave SRF in vitro | SRF245A/254A mutant was resistant to caspase 3 cleavage | –
2 | conditional caspase 3 (iCasp3) | – | – | – | The 130 kDa cleavage fragment of ROCK1 was detected in cardiomyocytes infected with Ad-G/iCasp3 and treated with CID
